Test results: US20250163145A1 (SHIONOGI, published 2025)
Where a chain is given by its changes, count along the chain named. Numbers in names are those of the source. Where no end group is shown, it is not given here.

T1: epitope peptide Cys-CE3C long (also: biotin label, site not given here)
T1 peptide: CSVNVDKQPKYEYSL

B1: h15H11-32 (antibody, human IgG4 S228P, kappa, V domains shown)
VH: QVQLVQSGSELKKPGASVKVSCKASGYTFTEYNMHWVRQAPGRSLEWMGRINPKNGVINSNEKFKDRFVFSLDTSVSTAYLQISSLKAEDTAVYYCAPSYYGGNSDAYWGQGTLVTVSS
VL: DIVLTQSPASLAVSPGQRATITCRVSDSVDNYGISFLNWFQQKPGQPPKLLIYAASSQGSGVPARFSGSGSGTDFTLTINPMEANDTANYYCQQSKEFPWTFGGGTKVEIKR
notes: hIgG4Pro/hIgK
B2: h15H11-39 (antibody, human IgG4 S228P, kappa, V domains shown)
VH: B1 VH with E31D, S60Y, S105T
VL: B1 VL with V25A
notes: hIgG4Pro/hIgK
B3: h15H11-36 (antibody, human IgG4 S228P, kappa, V domains shown)
VH: B1 VH with E31D, S60L, S105T
VL: B1 VL with V25A
notes: hIgG4Pro/hIgK
B4: h15H11-38 (antibody, human IgG4 S228P, kappa, V domains shown)
VH: B1 VH with E31D, N59K, S105T
VL: B1 VL
notes: hIgG4Pro/hIgK
B5: h15H11-40 (antibody, human IgG4 S228P, kappa, V domains shown)
VH: B1 VH with E31D, S60L, S105T
VL: B1 VL
notes: hIgG4Pro/hIgK
B6: h15H11-35 (antibody, human IgG4 S228P, kappa, V domains shown)
VH: B1 VH with E31D, S105Q
VL: B1 VL with V25A
notes: hIgG4Pro/hIgK
B7: h15H11-34 (antibody, human IgG4 S228P, kappa, V domains shown)
VH: B1 VH with Y101F, N104Q
VL: B1 VL with V25A
notes: hIgG4Pro/hIgK
B8: h15H11-33 (antibody, human IgG4 S228P, kappa, V domains shown)
VH: B1 VH with E31D, N59Q
VL: B1 VL with V25A
notes: hIgG4Pro/hIgK
B9: h15H11-42 (antibody, human IgG4 S228P, kappa, V domains shown)
VH: B1 VH with E31D, N104K, S105T
VL: B1 VL with V25A, D27E, L37M
notes: hIgG4Pro/hIgK
B10: h15H11-43 (antibody, human IgG4 S228P, kappa, V domains shown)
VH: B1 VH with E31D, S105T
VL: B1 VL with V25A, D27E, I34F, L37M
notes: hIgG4Pro/hIgK
B11: h15H11-37 (antibody, human IgG4 S228P, kappa, V domains shown)
VH: B1 VH with E31D, S105Q
VL: B1 VL
notes: hIgG4Pro/hIgK
B12: h15H11-41 (antibody, human IgG4 S228P, kappa, V domains shown)
VH: B1 VH with E31D, Y101F
VL: B1 VL with V25A
notes: hIgG4Pro/hIgK
B13: humanized 15H11 CDR graft IGKV1-39 / IGHV1-2 (R94P) (antibody, human IgG4 S228P, kappa, V domains shown)
VH: QVQLVQSGAEVKKPGASVKVSCKASGYTFTDYNMHWVRQAPGQGLEWMGRINPKNGVINSNEKFKDRVTMTRDTSISTAYMELSRLRSDDTAVYYCAPSYYGGNTDAYWGQGTLVTVSS
VL: DIQMTQSPSSLSASVGDRVTITCRASESVDNYGISFMNWYQQKPGKAPKLLIYAASSQGSGVPSRFSGSGSGTDFTLTISSLQPEDFATYYCQQSKEFPWTFGGGTKVEIKR
notes: hIgG4Pro/hIgK
B14: humanized 15H11 CDR graft IGKV1-39 / IGHV7-4-1 (R94P) (antibody, human IgG4 S228P, kappa, V domains shown)
VH: B1 VH with E31D, R43Q, S44G, S105T
VL: B13 VL
notes: hIgG4Pro/hIgK
B15: humanized 15H11 CDR graft IGKV3-11 / IGHV1-2 (R94P) (antibody, human IgG4 S228P, kappa, V domains shown)
VH: B13 VH
VL: EIVLTQSPATLSLSPGERATLSCRASESVDNYGISFMNWYQQKPGQAPRLLIYAASSQGSGIPARFSGSGSGTDFTLTISSLEPEDFAVYYCQQSKEFPWTFGGGTKVEIKR
notes: hIgG4Pro/hIgK
B16: humanized 15H11 CDR graft IGKV1-39 / IGHV1-46 (R94P) (antibody, human IgG4 S228P, kappa, V domains shown)
VH: B13 VH with I76T, A79V, R85S, D89E
VL: B13 VL
notes: hIgG4Pro/hIgK
B17: humanized 15H11 CDR graft IGKV3-20 / IGHV1-18 (R94P) (antibody, human IgG4 S228P, kappa, V domains shown)
VH: B13 VH with R72T, I76T, S84R, R85S
VL: B15 VL with S81R
notes: hIgG4Pro/hIgK
B18: humanized 15H11 CDR graft IGKV3-11 / IGHV1-3 (R94P) (antibody, human IgG4 S228P, kappa, V domains shown)
VH: B13 VH with G44R, M70I, I76A, R85S, D89E
VL: B15 VL
notes: hIgG4Pro/hIgK
B19: humanized 15H11 CDR graft IGKV3-20 / IGHV1-46 (R94P) (antibody, human IgG4 S228P, kappa, V domains shown)
VH: B13 VH with I76T, A79V, R85S, D89E
VL: B15 VL with S81R
notes: hIgG4Pro/hIgK
B20: humanized 15H11 CDR graft IGKV1-39 / IGHV1-18 (R94P) (antibody, human IgG4 S228P, kappa, V domains shown)
VH: B13 VH with R72T, I76T, S84R, R85S
VL: B13 VL
notes: hIgG4Pro/hIgK
B21: humanized 15H11 CDR graft IGKV3-11 / IGHV1-18 (R94P) (antibody, human IgG4 S228P, kappa, V domains shown)
VH: B13 VH with R72T, I76T, S84R, R85S
VL: B15 VL
notes: hIgG4Pro/hIgK
B22: humanized 15H11 CDR graft IGKV3-20 / IGHV1-2 (antibody, human IgG4 S228P, kappa, V domains shown)
VH: B13 VH with P98R
VL: B15 VL with S81R
notes: hIgG4Pro/hIgK
B23: humanized 15H11 CDR graft IGKV1-39 / IGHV1-2 (antibody, human IgG4 S228P, kappa, V domains shown)
VH: B13 VH with P98R
VL: B13 VL
notes: hIgG4Pro/hIgK
B24: humanized 15H11 CDR graft IGKV1-39 / IGHV1-3 (R94P) (antibody, human IgG4 S228P, kappa, V domains shown)
VH: B13 VH with G44R, M70I, I76A, R85S, D89E
VL: B13 VL
notes: hIgG4Pro/hIgK
B25: humanized 15H11 CDR graft IGKV3-20 / IGHV1-2 (R94P) (antibody, human IgG4 S228P, kappa, V domains shown)
VH: B13 VH
VL: B15 VL with S81R
notes: hIgG4Pro/hIgK
B26: humanized 15H11 CDR graft IGKV3-20 / IGHV1-3 (R94P) (antibody, human IgG4 S228P, kappa, V domains shown)
VH: B13 VH with G44R, M70I, I76A, R85S, D89E
VL: B15 VL with S81R
notes: hIgG4Pro/hIgK
B27: humanized 15H11 CDR graft IGKV3-11 / IGHV1-46 (R94P) (antibody, human IgG4 S228P, kappa, V domains shown)
VH: B13 VH with I76T, A79V, R85S, D89E
VL: B15 VL
notes: hIgG4Pro/hIgK
B28: humanized 15H11 CDR graft IGKV3-11 / IGHV1-2 (antibody, human IgG4 S228P, kappa, V domains shown)
VH: B13 VH with P98R
VL: B15 VL
notes: hIgG4Pro/hIgK
B29: humanized 15H11 CDR graft IGKV3-11 / IGHV7-4-1 (R94P) (antibody, human IgG4 S228P, kappa, V domains shown)
VH: B1 VH with E31D, R43Q, S44G, S105T
VL: B15 VL
notes: hIgG4Pro/hIgK
B30: humanized 15H11 CDR graft IGKV7-3 / IGHV7-4-1 (R94P) (antibody, human IgG4 S228P, kappa, V domains shown)
VH: B1 VH with E31D, R43Q, S44G, S105T
VL: B1 VL with V25A, D27E, L37M, F40Y, M82V
notes: hIgG4Pro/hIgK

Molecular target: T1, epitope peptide Cys-CE3C long
Assay: competitive ELISA, unlabeled vs biotin-labeled peptide, antibody on anti-human IgG plate
Experimental: A diluted solution of the obtained recombinant humanized antibody, a biotin-labeled immunogen peptide, and Streptavidin-HRP (manufactured by PIERCE) were added to an anti-human IgG antibody-immobilized plate, and reacted overnight at 4° C. […] Next, a recombinant human antibody at the dilution rate, a biotin-labeled immunogen peptide, and Streptavidin-HRP (manufactured by PIERCE) were added. At the same time, a dilution series of unlabeled immunogenic peptide was added and reacted overnight at 4° C. After washing twice with ELISA wash buffer, TMB-Substrate Chromogen (manufactured by Thermo Fisher Scientific) was added to develop color, the reaction was stopped with an equal amount of 0.5N sulfuric acid, and the absorbance at 450 nm was measured. The concentration of the unlabeled peptide which attenuated the signal of the biotin-labeled peptide by half was defined as the affinity (IC50).

| Binder | IC50 [nM] |
| --- | --- |
| B1 | 0.95 |
| B2 | 1.05 |
| B3 | 1.02 |
| B4 | 1.04 |
| B5 | 1.06 |
| B6 | 1 |
| B7 | 0.99 |
| B8 | 0.98 |
| B9 | 0.83 |
| B10 | 0.83 |
| B11 | 1.04 |
| B12 | 1.07 |

Molecular target: T1, epitope peptide Cys-CE3C long
Assay: ELISA, supernatant IgG on anti-human IgG plate, biotin-peptide + streptavidin-HRP; titer per unit IgG
Experimental: The amount of IgG in the supernatant was determined by the following method. To evaluate the amount of IgG in the supernatant, the culture supernatant was added to an anti-human IgG antibody (manufactured by Jackson) immobilized plate, after reacting at room temperature for 3 hours, washed twice with ELISA wash buffer, and HRP-labeled anti-human IgG antibody (manufactured by Jackson) was reacted at 4° C. overnight. After washing twice with ELISA wash buffer and developing color by adding TMB-Substrate Chromogen (manufactured by Thermo Fisher Scientific), the reaction was stopped with an equal volume of 0.5N sulfuric acid, and the absorbance at 450 nm was measured to calculate (A) the dilution factor of the culture supernatant at which the OD was 1.0.
The titer of IgG in the supernatant against the epitope peptide was determined by the following method. In order to evaluate the titer of IgG in the supernatant against epitope peptides, the culture supernatant was added to an anti-human IgG antibody (manufactured by Jackson) immobilized plate, reacted for 3 hours at room temperature, and then washed twice with ELISA wash buffer, and a biotin-labeled epitope peptide (Cys-CE3C long: SEQ ID NO: 13) and Streptavidin-HRP (manufactured by PIERCE) were added and reacted overnight at 4° C. After washing twice with ELISA wash buffer and developing color by adding TMB-Substrate Chromogen (manufactured by Thermo Fisher Scientific), the reaction was stopped with an equal volume of 0.5N sulfuric acid, the absorbance at 450 nm was measured to calculate (B) the dilution ratio of the culture supernatant at which the OD was 1.0.
The titer (ratio) against the epitope peptide (Cys-CE3C long: SEQ ID NO: 13) per unit IgG amount was calculated as (B)/(A).

| Binder | (B)/(A) titer (ratio) against the epitope peptide per unit IgG amount |
| --- | --- |
| B13 | 0.14 |
| B14 | 0.16 |
| B15 | 0.15 |
| B16 | 0.09 |
| B17 | 0.13 |
| B18 | 0.12 |
| B19 | 0.09 |
| B20 | 0.13 |
| B21 | 0.15 |
| B22 | 0.04 |
| B23 | 0.03 |
| B24 | 0.12 |
| B25 | 0.12 |
| B26 | 0.12 |
| B27 | 0.12 |
| B28 | 0.05 |
| B29 | 0.18 |
| B30 | 0.26 |
